Results published in patent US20090305961.

Tested on: plasminogen

With “human low molecular weight urokinase-plasminogen activator (LMW-u-PA)” the “amidolytic activity, chromogenic substrates Chromozyme U and S-2251, absorbance at 405 nm” value was “Cells transfected with pLMW-u-PA showed much higher levels of u-PA activity compared to cells transfected with pSPUC1A”.
